Consider 1 substance from patent US20060172938.

The series deals with T1, cyclic peptide CDMWERVSRC
T1 sequence: CDMWERVSRC

Chain of Native seprase isolated from LOX cells (chain): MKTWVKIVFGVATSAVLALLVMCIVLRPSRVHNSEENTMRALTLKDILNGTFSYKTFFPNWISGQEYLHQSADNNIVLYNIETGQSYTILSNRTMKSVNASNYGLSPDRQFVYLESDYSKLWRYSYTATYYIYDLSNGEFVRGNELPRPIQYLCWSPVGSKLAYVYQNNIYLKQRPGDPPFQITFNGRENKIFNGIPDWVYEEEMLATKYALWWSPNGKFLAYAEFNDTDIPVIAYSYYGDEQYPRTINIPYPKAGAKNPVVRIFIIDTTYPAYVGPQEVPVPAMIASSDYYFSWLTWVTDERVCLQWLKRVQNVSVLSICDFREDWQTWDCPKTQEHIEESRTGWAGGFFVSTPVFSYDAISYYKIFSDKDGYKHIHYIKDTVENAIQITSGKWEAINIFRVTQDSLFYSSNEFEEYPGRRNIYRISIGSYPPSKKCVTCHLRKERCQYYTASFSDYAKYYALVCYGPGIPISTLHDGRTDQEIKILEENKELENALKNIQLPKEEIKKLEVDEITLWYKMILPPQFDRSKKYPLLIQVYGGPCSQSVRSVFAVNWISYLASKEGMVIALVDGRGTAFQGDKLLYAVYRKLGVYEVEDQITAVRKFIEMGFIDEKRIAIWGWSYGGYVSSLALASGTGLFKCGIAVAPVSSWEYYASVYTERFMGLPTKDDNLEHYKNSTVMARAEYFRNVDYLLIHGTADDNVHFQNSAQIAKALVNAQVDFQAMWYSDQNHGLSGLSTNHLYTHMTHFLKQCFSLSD

As for Native seprase isolated from LOX cells, the “increase of the catalytic Km for Gly-Pro-pNA (Lineweaver-Burke analysis)” value is “When the concentration of CDMWERVSRC [SEQ ID NO: 3] was 62.5 mM, the catalytic Km value increased by 5 times (from 0.7 mM to 3.5 mM)”.
